# In paper PMC3946280, “Crystal Structures of the Novel Cytosolic 5′-Nucleotidase IIIB Explain Its Preference for m^7GMP” (PLoS ONE, 2014):
# T1: DmcN-IIIB (Drosophila melanogaster, UniProt Q9W197)
# T1 construct: gene cN-IIIB; full length 1-319; His6-SUMO fusion from pET-SUMOadapt in E. coli Rosetta 2(DE3), tag cleaved (stated for crystallization)
# T1 sequence (Q9W197 1-319): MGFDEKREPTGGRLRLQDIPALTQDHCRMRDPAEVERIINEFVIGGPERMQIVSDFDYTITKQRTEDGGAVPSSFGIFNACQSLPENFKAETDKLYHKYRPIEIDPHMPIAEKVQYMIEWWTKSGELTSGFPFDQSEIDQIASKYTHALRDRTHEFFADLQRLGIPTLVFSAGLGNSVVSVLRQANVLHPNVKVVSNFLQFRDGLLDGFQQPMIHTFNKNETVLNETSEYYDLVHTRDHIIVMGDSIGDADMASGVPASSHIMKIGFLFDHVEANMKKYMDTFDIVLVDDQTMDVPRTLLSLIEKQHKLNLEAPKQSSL
# Legend:
# [1] = molecular target: T1, DmcN-IIIB; experiment: X-ray crystal structure, […] Å; format: binding; conditions: co-crystallized with MgF3− and Mg2+; pH 7.5; active site
# [2] = molecular target: T2, HscN-IIIA (Homo sapiens, UniProt Q9H0P0); conditions: 37 °C; preincubated with 5 mM DTT
# T2 construct: gene NT5C3A
# [3] = molecular target: T1, DmcN-IIIB; experiment: X-ray crystal structure, […] Å; format: binding; conditions: co-crystallized, no MgF3− density; pH 7.5; active site
# [4] = substrate: Nc1ccn([C@@H]2O[C@H](COP(=O)(O)O)[C@@H](O)[C@H]2O)c(=O)n1; experiment: colorimetric malachite green phosphate assay; format: biochemical, Drosophila melanogaster; conditions: 25 °C
# [5] = substrate: C[n+]1cn([C@@H]2O[C@H](COP(=O)(O)O)[C@@H](O)[C@H]2O)c2nc(N)[nH]c(=O)c21; experiment: colorimetric malachite green phosphate assay; format: biochemical, Drosophila melanogaster; conditions: 25 °C
# [6] = substrate: Nc1ccn([C@@H]2O[C@H](COP(=O)(O)O)[C@@H](O)[C@H]2O)c(=O)n1; experiment: purified protein; conditions: 37 °C, preincubated with 5 mM DTT
# [7] = substrate: C[n+]1cn([C@@H]2O[C@H](COP(=O)(O)O)[C@@H](O)[C@H]2O)c2nc(N)[nH]c(=O)c21; experiment: colorimetric malachite green phosphate assay; format: biochemical, Homo sapiens; conditions: 37 °C, preincubated with 5 mM DTT
molecule,measurement,setting,value
C[n+]1cn([C@@H]2O[C@H](CO)[C@@H](O)[C@H]2O)c2nc(N)[nH]c(=O)c21 [7-methylguanosine],"X-ray crystal structure, 1.65 Å",[1],crystal structures of ^DmcN-IIIB bound to 7-methylguanosine or cytidine have been deposited
C[n+]1cn([C@@H]2O[C@H](COP(=O)(O)O)[C@@H](O)[C@H]2O)c2nc(N)[nH]c(=O)c21 [m^7GMP],Km,[2],15 µM
Nc1ccn([C@@H]2O[C@H](COP(=O)(O)O)[C@@H](O)[C@H]2O)c(=O)n1 [CMP],Km,[2],80 µM
Nc1ccn([C@@H]2O[C@H](CO)[C@@H](O)[C@H]2O)c(=O)n1 [cytidine],"X-ray crystal structure, 2.05 Å",[3],crystal structures of ^DmcN-IIIB bound to 7-methylguanosine or cytidine have been deposited
"DmcN-IIIB (Drosophila melanogaster) (protein, full length 1-319; His6-SUMO fusion from pET-SUMOadapt in E. coli Rosetta 2(DE3), tag cleaved (stated for crystallization)) MGFDEKREPTGGRLRLQDIPALTQDHCRMRDPAEVERIINEFVIGGPERMQIVSDFDYTITKQRTEDGGAVPSSFGIFNACQSLPENFKAETDKLYHKYRPIEIDPHMPIAEKVQYMIEWWTKSGELTSGFPFDQSEIDQIASKYTHALRDRTHEFFADLQRLGIPTLVFSAGLGNSVVSVLRQANVLHPNVKVVSNFLQFRDGLLDGFQQPMIHTFNKNETVLNETSEYYDLVHTRDHIIVMGDSIGDADMASGVPASSHIMKIGFLFDHVEANMKKYMDTFDIVLVDDQTMDVPRTLLSLIEKQHKLNLEAPKQSSL",Km,[4],48 µM
same,kcat,[4],12 s⁻¹
same,kcat/Km,[4],242000 M⁻¹ s⁻¹
same,Km,[5],12 µM
same,kcat,[5],4.8 s⁻¹
same,kcat/Km,[5],403000 M⁻¹ s⁻¹
"DmcN-IIIB (Drosophila melanogaster; G76N) (protein, full length 1-319; His6-SUMO fusion from pET-SUMOadapt in E. coli Rosetta 2(DE3), tag cleaved (stated for crystallization)) MGFDEKREPTGGRLRLQDIPALTQDHCRMRDPAEVERIINEFVIGGPERMQIVSDFDYTITKQRTEDGGAVPSSFNIFNACQSLPENFKAETDKLYHKYRPIEIDPHMPIAEKVQYMIEWWTKSGELTSGFPFDQSEIDQIASKYTHALRDRTHEFFADLQRLGIPTLVFSAGLGNSVVSVLRQANVLHPNVKVVSNFLQFRDGLLDGFQQPMIHTFNKNETVLNETSEYYDLVHTRDHIIVMGDSIGDADMASGVPASSHIMKIGFLFDHVEANMKKYMDTFDIVLVDDQTMDVPRTLLSLIEKQHKLNLEAPKQSSL",Km,[4]; variant FNWW,51 µM
same,kcat,[4]; variant FNWW,8 s⁻¹
same,kcat/Km,[4]; variant FNWW,166000 M⁻¹ s⁻¹
same,Km,[5]; variant FNWW,2 µM
same,kcat,[5]; variant FNWW,1.1 s⁻¹
same,kcat/Km,[5]; variant FNWW,545000 M⁻¹ s⁻¹
"DmcN-IIIB (Drosophila melanogaster; F75H/G76N/W121Y) (protein, full length 1-319; His6-SUMO fusion from pET-SUMOadapt in E. coli Rosetta 2(DE3), tag cleaved (stated for crystallization)) MGFDEKREPTGGRLRLQDIPALTQDHCRMRDPAEVERIINEFVIGGPERMQIVSDFDYTITKQRTEDGGAVPSSHNIFNACQSLPENFKAETDKLYHKYRPIEIDPHMPIAEKVQYMIEWYTKSGELTSGFPFDQSEIDQIASKYTHALRDRTHEFFADLQRLGIPTLVFSAGLGNSVVSVLRQANVLHPNVKVVSNFLQFRDGLLDGFQQPMIHTFNKNETVLNETSEYYDLVHTRDHIIVMGDSIGDADMASGVPASSHIMKIGFLFDHVEANMKKYMDTFDIVLVDDQTMDVPRTLLSLIEKQHKLNLEAPKQSSL",Km,[4]; variant HNWY,315 µM
same,kcat,[4]; variant HNWY,9 s⁻¹
same,kcat/Km,[4]; variant HNWY,28800 M⁻¹ s⁻¹
same,Km,[5]; variant HNWY,11 µM
same,kcat,[5]; variant HNWY,0.5 s⁻¹
same,kcat/Km,[5]; variant HNWY,49500 M⁻¹ s⁻¹
"DmcN-IIIB (Drosophila melanogaster; F75H) (protein, full length 1-319; His6-SUMO fusion from pET-SUMOadapt in E. coli Rosetta 2(DE3), tag cleaved (stated for crystallization)) MGFDEKREPTGGRLRLQDIPALTQDHCRMRDPAEVERIINEFVIGGPERMQIVSDFDYTITKQRTEDGGAVPSSHGIFNACQSLPENFKAETDKLYHKYRPIEIDPHMPIAEKVQYMIEWWTKSGELTSGFPFDQSEIDQIASKYTHALRDRTHEFFADLQRLGIPTLVFSAGLGNSVVSVLRQANVLHPNVKVVSNFLQFRDGLLDGFQQPMIHTFNKNETVLNETSEYYDLVHTRDHIIVMGDSIGDADMASGVPASSHIMKIGFLFDHVEANMKKYMDTFDIVLVDDQTMDVPRTLLSLIEKQHKLNLEAPKQSSL",Km,[4]; variant HGWW,490 µM
same,kcat,[4]; variant HGWW,8 s⁻¹
same,kcat/Km,[4]; variant HGWW,16000 M⁻¹ s⁻¹
same,Km,[5]; variant HGWW,40 µM
same,kcat,[5]; variant HGWW,4.2 s⁻¹
same,kcat/Km,[5]; variant HGWW,106000 M⁻¹ s⁻¹
"DmcN-IIIB (Drosophila melanogaster; W121Y) (protein, full length 1-319; His6-SUMO fusion from pET-SUMOadapt in E. coli Rosetta 2(DE3), tag cleaved (stated for crystallization)) MGFDEKREPTGGRLRLQDIPALTQDHCRMRDPAEVERIINEFVIGGPERMQIVSDFDYTITKQRTEDGGAVPSSFGIFNACQSLPENFKAETDKLYHKYRPIEIDPHMPIAEKVQYMIEWYTKSGELTSGFPFDQSEIDQIASKYTHALRDRTHEFFADLQRLGIPTLVFSAGLGNSVVSVLRQANVLHPNVKVVSNFLQFRDGLLDGFQQPMIHTFNKNETVLNETSEYYDLVHTRDHIIVMGDSIGDADMASGVPASSHIMKIGFLFDHVEANMKKYMDTFDIVLVDDQTMDVPRTLLSLIEKQHKLNLEAPKQSSL",Km,[4]; variant FGWY,14 µM
same,kcat,[4]; variant FGWY,6 s⁻¹
same,kcat/Km,[4]; variant FGWY,410000 M⁻¹ s⁻¹
"DmcN-IIIB (Drosophila melanogaster; G76N/W121Y) (protein, full length 1-319; His6-SUMO fusion from pET-SUMOadapt in E. coli Rosetta 2(DE3), tag cleaved (stated for crystallization)) MGFDEKREPTGGRLRLQDIPALTQDHCRMRDPAEVERIINEFVIGGPERMQIVSDFDYTITKQRTEDGGAVPSSFNIFNACQSLPENFKAETDKLYHKYRPIEIDPHMPIAEKVQYMIEWYTKSGELTSGFPFDQSEIDQIASKYTHALRDRTHEFFADLQRLGIPTLVFSAGLGNSVVSVLRQANVLHPNVKVVSNFLQFRDGLLDGFQQPMIHTFNKNETVLNETSEYYDLVHTRDHIIVMGDSIGDADMASGVPASSHIMKIGFLFDHVEANMKKYMDTFDIVLVDDQTMDVPRTLLSLIEKQHKLNLEAPKQSSL",Km,[5]; variant FNWY,8 µM
same,kcat,[5]; variant FNWY,0.3 s⁻¹
same,kcat/Km,[5]; variant FNWY,37800 M⁻¹ s⁻¹
"DmcN-IIIB (Drosophila melanogaster; F75H/W121Y) (protein, full length 1-319; His6-SUMO fusion from pET-SUMOadapt in E. coli Rosetta 2(DE3), tag cleaved (stated for crystallization)) MGFDEKREPTGGRLRLQDIPALTQDHCRMRDPAEVERIINEFVIGGPERMQIVSDFDYTITKQRTEDGGAVPSSHGIFNACQSLPENFKAETDKLYHKYRPIEIDPHMPIAEKVQYMIEWYTKSGELTSGFPFDQSEIDQIASKYTHALRDRTHEFFADLQRLGIPTLVFSAGLGNSVVSVLRQANVLHPNVKVVSNFLQFRDGLLDGFQQPMIHTFNKNETVLNETSEYYDLVHTRDHIIVMGDSIGDADMASGVPASSHIMKIGFLFDHVEANMKKYMDTFDIVLVDDQTMDVPRTLLSLIEKQHKLNLEAPKQSSL",Km,[4]; variant HGWY,93 µM
same,kcat,[4]; variant HGWY,3 s⁻¹
same,kcat/Km,[4]; variant HGWY,32500 M⁻¹ s⁻¹
same,Km,[5]; variant HGWY,2 µM
same,kcat,[5]; variant HGWY,1.5 s⁻¹
same,kcat/Km,[5]; variant HGWY,755000 M⁻¹ s⁻¹
HscN-IIIB (Homo sapiens) (protein) MAEEVSTLMKATVLMRQPGRVQEIVGALRKGGGDRLQVISDFDMTLSRFAYNGKRCPSSYNILDNSKIISEECRKELTALLHHYYPIEIDPHRTVKEKLPHMVEWWTKAHNLLCQQKIQKFQIAQVVRESNAMLREGYKTFFNTLYHNNIPLFIFSAGIGDILEEIIRQMKVFHPNIHIVSNYMDFNEDGFLQGFKGQLIHTYNKNSSACENSGYFQQLEGKTNVILLGDSIGDLTMADGVPGVQNILKIGFLNDKVEERRERYMDSYDIVLEKDETLDVVNGLLQHILCQGVQLEMQGP,Km,[6],79 µM
same,kcat,[6],7 s⁻¹
same,kcat/Km,[6],87100 M⁻¹ s⁻¹
same,Km,[7],8 µM
same,kcat,[7],0.5 s⁻¹
same,kcat/Km,[7],64500 M⁻¹ s⁻¹
